According to the DeepSol protein solubility set:

Assay: soluble on expression in E. coli; label from the status in PepcDB or PDB records

Row | Sequence | soluble on expression in E. coli
1 | MGSDKIHHHHHHMINYTELEENIKKNNIENVYIMCGFNEKLMKESINKILKKSISQDFESLNYSVFDGNEVEFEDILNACETVPFMSEKRMVVVYRAGFLNDNSSGSNKNSDKLIKDIEKYVPNVPKHCILVMYYVFDNTREKPSYRVKKFDKKVCVVEFSKLRGMQFQKKVKDVFAEKGKQIGKTELNYFCSRVENNMDIVYNEIEKLCCYTLEKEITKESIDNLLQPNETDDIFNLVDYISQSKPEMAITVLNEIMYKGVKANSILYMVERQFKLMLSIKIGIENKQSKEALVKELKLNPYVCDKMINECKRFTMKKILKSLDICLRTEKELKSVSGDPKFKMEVLIINLAII | not soluble
2 | MGSDKIHHHHHHMIPFNKPHLTGKEVHYIYEAVHSGKISGNGIFTKKCHDFFTSTYGFTKTLMTSSCTDALEMSSLLMDIQPGDEIILPTFTFVSTANAFVLRGAKLVFVDSLATEPNMNVELIEGLITSKTKAIVVVHYAGVACDMDVVMNIAKKYQLFVVEDAAQAISSYYKDKPLGGIGDFGAFSFHETKNIISGEGGLLAINNSDYCNRSEIIWEKGTNRSAFFRGETDKYGWVDVGSSFLPSEIISAFLYAQLENVAEIQAKRLEIWNTYYNTLSPLAEHKKLRLPYIPAYATNNAHMFYVICNSLEERTALIDYLKAHNILAVFHYLSLHKSPYFSDKHDGRSMDYADQYAETLVRLPLFYDLSTEDQEFICTKILSFYSEKI | not soluble
3 | MGSDKIHHHHHHMIQGKKVVSTLDVSDLEPGKKHLLYFQGVEMPTGQHWHVSVTVAKGAKPGKRGVLVSGVHGDEMSSVHTIQTVMSQLDPAQMSGTVMAVTDVSRPAMEGMQRRWPNFGRGTDLIDMNREWPGNENGVTAASRQAGLLFNRLLRPNADFAIDFHTGTTGFDVAAFNIGGMDVPEIKAMLELYPVGQIFDNHVYPSVLHNAFIAAGIPSFCPEIGAARVLDLEMISLFVEGTMNVLKHHGIVAGPMGRTGKDVHVFVGNSAFPILATAGGLVEHLVKLNDKVEAGQKLAIQRDSFGEVVAEYASGVAGEISGLRSDAMSEPGNPLVFVLFNKPGPEDVGGYPE | not soluble
4 | MGSDKIHHHHHHMITRLHEPYLALLQQAMLAATPSGSRVALDLGCGDGSKTRWLRACSASDALIVGVDRDGSVLRAADDMMFIAGDASHLPLRDACIDLVWCIAALNLFPHRHLALREMWRVLRHGGTLVVASAGEYWVRLRNHPAPLIAALPDTPLPLPPADGLDEEWLLLMAAAGFQPRQTQAYLLDGGRLAQVALINSEALTSYLSLPPCASPVADPEPRHLLIVTSARKG | not soluble
5 | MGSDKIHHHHHHMITTDSGEQVEALAPIIISASRSTDIPAFYAKWFFNRLAKGYCVWYNPFNRRKMYVSFERCKAIVFWTKNPKLILPYLHELDRRGIHYYFQFTLNDYVSEGFEPNVPSVTQRVETFRELSEMIGKERVIWRFDPLIMTPSITPRVLLSRIWKIGNLLKGYTDKLVFSFVDVKAYRKVQNNLIKETNCFTKEDVETAEMNATQRQETVEGLVKLREIWASTGWNVTLATCAEDIDLTVYGIEHNRCIDGDLMERVFEEDYELVYYLRTGQLPEPDLFGTFPALPDKRKDLKDKGQRKACGCMISKDIGRYNTCRHFCVYCYANTSRECVQKNAVHYSDDSESLIRS | not soluble
6 | MGSDKIHHHHHHMITYFELKNFRSFSNITLDLRKAYGKPKKVVFIYGENGSGKSNLMSSFLFLLQTLNTFKNQVELKDMPEYKSNLFESIKDDKIRHQLLQQILHMQFITLSNLIDEYKMLGNEKNMSTKFGFRIEESDGSYFMEFSKDKIIKEELRYQINEREGTVFSISKNQITLSPTVFLDLDYKKELQDNIEKYWGKHTFMAILCNEIETKNSNYIKAKINKNLLNVIWEMRGLSVWCKECHGETARISIPLKFMRQLDEGSVKDQNNKELKLCETALNTFFTQLYSDIKAVHYVFTPNENDYSYELCFKKLIDGKLIDIPISLESTGTRKLLEIFPMLFGSVAGTPVFVDEIDSGIHDVLMKNLLERLLESIEGQLIATTHNTLLMESLPTENTYIIRVNATGNKSIDCVANYRQRTQKTNSMRNKYLRGDYDGIPYTGYFDFQELVEDVLDNIPSSDNEDGDEA | not soluble
7 | MGSDKIHHHHHHMIYCDHCVMPNTRPGINFTKDKEGKNICSACINHKNKENIDYKARFKELEVLCDKYRRMNGKFEYDCAIAVSGGKDSHFQVHIMKEKLGMNPILFSVEDNFTMTEAGKKNLKNLSETFGCHIISLKPDIKTQKKVMLKTFEKYGKPTWFIDRLIYSYPFAMALKFNTPLLVYGENVSYEYGGSDTEETPSAKEIFLNGVASDLNINEFIDDEIKEENLQLFFNPNKDKLDKLNPIYLSYFVKWNSYSNYIFAKSRGFTDLEGEWDRTMCAENFDQVDSIGYILHAWMKYPKFGHACASDYAARFVRYGLLSRKEAIELVQKRDHKLDNKCVEDFCNFIGISKTTFWKIVEKHYNMDLFYKNDFGEFKLKNKLQ | not soluble
8 | MGSDKIHHHHHHMIYKADNNVRQKLVEMFDDFDSTIVLSYLQGHMGSAWVDNLENPTVAQITVGIFVFYAGNPNAEEAEELLYNLPDFTLAIVDSDEWKKRIETVHKGSIEKFQRFRFNKNPGDLDKEYIRDILSTLPQNYEMKKIDKDIAKASSFHALSEDFTSQFDSIDDFIDRGVGYAILNKGQVVSAATSFSIFDDGIEIEIASHPEHRRKGLAKIVASALILDCLDREKYPSWDGANVESVELAKKLGYTFKEPYDTYFIQIKK | not soluble
9 | MGSDKIHHHHHHMKAANLAPCLMAMLLCTACEQLPIARKAPPPPPPATTAAKPAEQPRPTPIAAHDISLAGTCRRTEDDGFREDAVMRVVSNDVKSLKWKLWVSKRGTCQFDLADFKQVQKTPHIVLEATDGTQCKLLIWQDPRRVTLAHANCQQRCTPGIYEQAWPVLFNPRNGDCAEIR | not soluble
10 | MGSDKIHHHHHHMKCLRESAIVAYAETKVMEKSDRDVWELDAEVLEALLERSGFEKGEIDGLVMAGFGLTAAGESFWAQVTADQLGLELDYCDQVHIGGCSATGSVARAAAAIDAGLCTTVLLLFADTGVAENNRGDRSFRREWADPYGVFGPPDAFGLLTRRYEHQYGLDYEMLGKLAVTQRAHAVLNENACEKLRKPITIDDYLNSRMIADPIRLLDCVMRCDAASGLLMTSRRRAREKGIDKFITPIGYGERTNFQGGENFVDVTRSGHEACGKRALAQAGLALKDVASFHPYDDFIIAIMLQLEAFGFCGRGQGVQFIREMNFSFDGDLPLNTGGGQISAGQAACCSHNLIEAIRQLMGEGGARQVRNTANALVSGIGWINYSRNWGTSSALVLAPNA | not soluble
11 | MGSDKIHHHHHHMKDNFFGREYDIAPAGGETGQAFVATHEDEKFFLKRNSSPFLAALSVENIVPKLVWTRRVENGDVITAQKWVNCHILTREEMVGPRVAKLLAKIHHSENLQHMLAKIENCYFSADQLLSLIKVNTKANNELSKEIIAAIRYLEQNLSAAQTNDYVVCHGDVNHNNWIISEENELFLVDWDGAMLADPANDIGMILYQYIPRKDWVSWLSNYGTTLTEELHRKLKWYTICQTVMQLITEHSNEANERAKQIFQNAIEDDEV | not soluble
12 | MGSDKIHHHHHHMKEILLKAENVRAYYKLEKVSVKAVDGLSFEILEDEVIGVVGESGCGKTTLSNVIFMNMVKPLTLVDGKIFLRVNGEFVELSSMTRDEVKRKFWGKEITIIPQAAMNALMPTIRMEKYVRHLAESHGIDEEELLDKARRRFEEVGLDPLWIKRYPFELSGGMRQRAVIAIATILNPSLLIADEPTSALDVVNQKVLLKVLMQMKRQGIVKSIIFITHDIATVRQIADRMIIMYAGKIVEFAPVESLLEKPLHPYTQGLFNSVLTPEPEVKKRGITTIPGAPPNLINPPSGCRFHPRCPHAMDVCKEKEPPLTEIEPGRRVACWLYMEERA | not soluble
13 | MGSDKIHHHHHHMKETWISERRMIQLPGLTIDRHISAPNELEFPGCKYHLLCILLSDHNQQKMTRIGEQESQKSQAKGDFWICPAKMSGIWSWNSTDESLTFVIDPLFLSRMAEEVGELNESKVELLSTVNAHDPQIEAIARLFQAEFDTGGLGGHLYAESLIQVLIVHLLRQYCAFSPKIKPDVGSMPNNRLQPVFDYIHSYLDRPLLLAELAEISGISQYYFCRLFKQSMGVAPYQYVLQQRMEKAKELLHQRKYAIAEIALLVGCADQSRFTRHFKKYVGVTPRMFLSKK | not soluble
